Reference: paper PMC8146883, “A New Thermophilic Ene-Reductase from the Filamentous Anoxygenic Phototrophic Bacterium Chloroflexus aggregans” (Microorganisms, 2021)

How the values were obtained:
Assay in all cases: purified protein
Assay type in all cases: biochemical, Chloroflexus aggregans
Conditions in all cases: 100 μM NADPH, 50 mM Tris-HCl pH 8.0, 25 °C, 1% ethanol, 200 nM enzyme
purified protein [1] = substrate: C=CC(=O)CCCCC
purified protein [2] = substrate: CC1=CC(=O)CC(C)(C)C1=O
purified protein [3] = substrate: O=C1C=CCCC1

B1: CaOYE (Chloroflexus aggregans DSM 9485) (protein)
chain: MQPHLFTPLTIGSVTLRNRIGMSPMCQYSAVDGFPTDWHLMHLGARAAGGVGLIILEATAVSPEGRISPFDLGIWSDDHIAALSRIVKLIESLGAVAGIQLAHAGRKASVGRPWEGGKPIAPANGGWPVVGPTAEPFAPGYPTPIPLDAAGIARVVADFATATKRARAAGFRWIEIHAAHGYLLHNFLSPLGNDRNDEYGGDLRGRVRLLSEVTAAVRAEWPSDLPLAVRLSCSDWTPEGLTIADTVEVARMLREQGVDLIDCSSGGIAPGITIPVGEGYQVPFAAQVRREANIATAAVGLITRPEHADAIVRNGDADLVLLGRELLRDPHWPLRAARALGHDLAPPPQYLRAW
notes: full-length ORF in pET-28a(+) (NdeI/BamHI), N-terminal His6-tag, E. coli BL21(DE3); model visible Met1 to Trp354; monomer in solution, dimer in crystal
- Km (purified protein [1]): 10.32 ± 1.438 mM
- kcat (purified protein [1]): 12.1 ± 0.661 s⁻¹
- kcat/Km (purified protein [1]): 1170 M⁻¹ s⁻¹
- Km (purified protein [2]): 0.013 ± 0.002 mM
- kcat (purified protein [2]): 2.27 ± 0.055 s⁻¹
- kcat/Km (purified protein [2]): 175000 M⁻¹ s⁻¹
- Km (purified protein [3]): 5.520 ± 0.627 mM
- kcat (purified protein [3]): 3.82 ± 0.176 s⁻¹
- kcat/Km (purified protein [3]): 690 M⁻¹ s⁻¹
